Laboratory results: PMC12316308, “Interactions of substrates and phosphinyl containing inhibitors with bacterial and human zinc proteases” (PLOS One, 2025)

System: T1, COc1ccc2c(CC(=O)N3CCC[C@H]3C(=O)N[C@@H](CC(C)C)C(=O)NCC(=O)N[C@@H](CC(C)C)C(=O)N[C@@H](CNc3ccc([N+](=O)[O-])cc3[N+](=O)[O-])C(=O)N[C@@H](C)C(=O)N[C@@H](CCCNC(=N)N)C(N)=O)cc(=O)oc2c1
T1 construct: made in house; host or cells: Sf9 and High Five insect cells
Assay: Determination of Km values
Assay type: biochemical, human
Conditions: other: MMP-9(MT); 1% DMSO; n = 3; pH 7.5
Description: Determination of Km values. […] Substrate concentrations used were 1–10 µM in a total volume of 100 µL of 0.1 M Hepes pH 7.5 containing 10 mM CaCl2, 0.005% Brij-35 and 1.0% DMSO. […] Initial rate experiments were performed as described above to determine enzyme reaction velocities using a LS 50 Luminescence Spectrometer and the FL WinLab Software Package (Perkin Elmer). The Km and s.d values were calculated with Graph Pad Prism 5 using the Michaelis-Mention equation. […] During these experiments, reactions were monitored for only one minute, and initial reaction velocities were determined from the activity curves.

Chain of Mag-Trypsin activated recombinant MMP-9 (MMP-9(MT)) (Homo sapiens) (chain, as listed by the source): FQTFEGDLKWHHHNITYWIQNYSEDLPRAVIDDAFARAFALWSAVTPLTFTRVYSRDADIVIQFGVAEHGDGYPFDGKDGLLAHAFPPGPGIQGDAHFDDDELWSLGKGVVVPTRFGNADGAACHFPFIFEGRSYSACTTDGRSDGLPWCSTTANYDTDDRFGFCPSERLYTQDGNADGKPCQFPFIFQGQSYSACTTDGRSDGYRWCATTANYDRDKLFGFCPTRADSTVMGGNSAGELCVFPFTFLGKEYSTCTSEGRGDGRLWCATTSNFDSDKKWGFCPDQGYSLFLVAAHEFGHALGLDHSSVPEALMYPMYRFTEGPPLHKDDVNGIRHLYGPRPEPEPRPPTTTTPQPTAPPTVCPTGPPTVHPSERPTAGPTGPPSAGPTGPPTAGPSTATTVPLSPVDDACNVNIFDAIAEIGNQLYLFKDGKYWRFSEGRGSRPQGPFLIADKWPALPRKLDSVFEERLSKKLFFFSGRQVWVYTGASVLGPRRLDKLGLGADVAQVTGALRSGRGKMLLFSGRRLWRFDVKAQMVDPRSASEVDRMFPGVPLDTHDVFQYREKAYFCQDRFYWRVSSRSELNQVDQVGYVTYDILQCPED

Substance: Mag-Trypsin activated recombinant MMP-9 (MMP-9(MT)) (Homo sapiens)
- Km: 2.7 ± 0.5 µM
